According to patent publication US20260167681A1 (POSTECH RESEARCH AND BUSINESS DEVELOPMENT FOUNDATION, published 2026):

Biological target: T1, ovalbumin (OVA) (UniProt P01012 2-386)
T1 construct: also called model antigen ovalbumin
T1 sequence (looked up): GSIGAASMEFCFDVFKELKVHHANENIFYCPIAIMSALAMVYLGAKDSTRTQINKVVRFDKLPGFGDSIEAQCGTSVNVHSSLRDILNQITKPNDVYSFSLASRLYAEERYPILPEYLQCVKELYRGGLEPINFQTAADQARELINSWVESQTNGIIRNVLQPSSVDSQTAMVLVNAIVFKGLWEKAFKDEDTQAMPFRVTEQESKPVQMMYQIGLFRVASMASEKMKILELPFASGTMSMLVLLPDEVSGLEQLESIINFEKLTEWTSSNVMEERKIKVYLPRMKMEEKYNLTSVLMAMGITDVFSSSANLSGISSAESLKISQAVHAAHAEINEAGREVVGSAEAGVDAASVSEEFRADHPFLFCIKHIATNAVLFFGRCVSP
Assay: zeta potential (DLS, Zetasizer) of ovalbumin/MAP-AP mixtures at weight ratios 2, 1 and 0.5
Experimental: First, ovalbumin and the adhesive adjuvant protein (MAP-AP) were prepared at a concentration of 1 mg/mL each, and nanocomplexes were then prepared with ovalbumin and MAP-AP at weight ratios of 2, 1, and 0.5, respectively. Dynamic light scattering (DLS, Zetasizer, UK) was used to measure the surface charge of the samples. The concentration of each substance was maintained below 1 mg/mL, and all measurements were performed at room temperature.
As a result, the spontaneous formation of nanocomplexes by the negatively charged ovalbumin and adhesive adjuvant protein (MAP-AP) was confirmed through changes in surface charge. When the mass ratio of ovalbumin to MAP-AP reached 1 or higher, the adhesive adjuvant protein (MAP-AP) became saturated, and the mass ratio was ultimately set to 1.

B1: adhesive adjuvant protein (MAP-AP; MAP-based Adjuvant Protein) (other)
chain: MAKPSYPPTYKAKPSYPPTYKAKPSYPPTYKAKPSYPPTYKAKPSYPPTYKAKPSYPPTYKPWSSEEYKGGYYPGNTYHYHSGGSYHGSGYHGGYKGKYYGKAKKYYYKYKNSGKYKYLKKARKYHRKGYKKYYGGGSSAKPSYPPTYKAKPSYPPTYKAKPSYPPTYKAKPSYPPTYKAKPSYPPTYKAKPSYPPTYKLGGGGSAKFVAAWTLKAAA
notes: Recombinant fusion protein made in E. coli; also called MAP-based Adhesive adjuvant protein
mass ratio of ovalbumin to MAP-AP at which MAP-AP is saturated: ≥ 1 mass ratio (ovalbumin:MAP-AP)
